Assay results published in patent US20050048070A1 (published 2005).

Assays:
[1] = target: T1, K8 (1-342); assay: Western blot of SDS-PAGE-separated K8 GST fusion proteins, stained with COU-1 alone
T1 construct: not shown: N-terminal GST and its linker (modified pGEX-2T)
T1 chain: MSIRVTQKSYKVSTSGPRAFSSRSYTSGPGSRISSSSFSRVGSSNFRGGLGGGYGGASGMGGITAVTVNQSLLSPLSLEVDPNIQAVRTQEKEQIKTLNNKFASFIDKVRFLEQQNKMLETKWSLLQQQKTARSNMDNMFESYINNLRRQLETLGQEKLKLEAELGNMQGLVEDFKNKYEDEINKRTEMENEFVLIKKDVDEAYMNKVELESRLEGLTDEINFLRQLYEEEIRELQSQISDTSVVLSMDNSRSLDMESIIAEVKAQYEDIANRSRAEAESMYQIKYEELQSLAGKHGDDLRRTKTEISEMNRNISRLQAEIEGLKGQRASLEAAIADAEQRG

[2] = target: T2, K8 (1-352); assay: as above
T2 construct: not shown: N-terminal GST and its linker (modified pGEX-2T)
T2 chain: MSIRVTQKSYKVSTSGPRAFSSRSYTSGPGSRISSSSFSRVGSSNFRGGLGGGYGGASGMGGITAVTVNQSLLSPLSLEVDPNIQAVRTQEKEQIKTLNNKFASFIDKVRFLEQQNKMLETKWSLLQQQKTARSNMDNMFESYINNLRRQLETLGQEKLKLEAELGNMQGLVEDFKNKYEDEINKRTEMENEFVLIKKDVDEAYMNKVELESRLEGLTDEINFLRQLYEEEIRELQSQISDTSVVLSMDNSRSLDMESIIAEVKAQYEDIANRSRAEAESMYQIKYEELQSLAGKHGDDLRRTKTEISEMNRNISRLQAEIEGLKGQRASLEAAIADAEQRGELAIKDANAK

[3] = target: T3, K8 (1-367); assay: as above
T3 construct: not shown: N-terminal GST and its linker (modified pGEX-2T)
T3 chain: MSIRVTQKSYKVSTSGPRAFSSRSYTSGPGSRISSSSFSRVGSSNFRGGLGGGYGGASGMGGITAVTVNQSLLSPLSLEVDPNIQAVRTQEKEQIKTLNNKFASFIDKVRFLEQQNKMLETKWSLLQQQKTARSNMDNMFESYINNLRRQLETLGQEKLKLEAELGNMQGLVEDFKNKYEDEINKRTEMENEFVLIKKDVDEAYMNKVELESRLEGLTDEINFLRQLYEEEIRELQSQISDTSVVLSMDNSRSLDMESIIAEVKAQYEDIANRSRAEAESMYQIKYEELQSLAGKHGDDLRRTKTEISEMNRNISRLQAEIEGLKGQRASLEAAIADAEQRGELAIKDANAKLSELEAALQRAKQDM

[4] = target: T4, K8 (1-403); assay: as above
T4 construct: not shown: N-terminal GST and its linker (modified pGEX-2T)
T4 chain: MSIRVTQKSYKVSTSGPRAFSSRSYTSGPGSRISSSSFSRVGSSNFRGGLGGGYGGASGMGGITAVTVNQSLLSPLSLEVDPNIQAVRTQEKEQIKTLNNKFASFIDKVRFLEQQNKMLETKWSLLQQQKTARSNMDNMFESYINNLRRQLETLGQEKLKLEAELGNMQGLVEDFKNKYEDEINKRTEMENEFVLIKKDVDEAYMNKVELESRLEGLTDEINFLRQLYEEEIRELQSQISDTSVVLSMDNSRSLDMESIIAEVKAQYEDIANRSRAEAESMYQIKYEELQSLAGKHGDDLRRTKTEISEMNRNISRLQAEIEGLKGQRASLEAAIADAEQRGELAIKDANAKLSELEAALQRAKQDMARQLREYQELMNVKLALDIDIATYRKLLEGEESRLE

[5] = target: T5, K8 (1-85); assay: as above
T5 construct: also called K8(1-85) GST fusion protein; not shown: N-terminal GST carrier (modified pGEX-2T) and its linker
T5 chain: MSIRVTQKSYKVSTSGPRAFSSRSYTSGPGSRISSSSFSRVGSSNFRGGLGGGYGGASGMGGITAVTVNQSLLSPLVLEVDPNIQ

[6] = target: T6, K8 (1-233); assay: as above
T6 construct: not shown: N-terminal GST carrier (modified pGEX-2T) and any linker
T6 chain: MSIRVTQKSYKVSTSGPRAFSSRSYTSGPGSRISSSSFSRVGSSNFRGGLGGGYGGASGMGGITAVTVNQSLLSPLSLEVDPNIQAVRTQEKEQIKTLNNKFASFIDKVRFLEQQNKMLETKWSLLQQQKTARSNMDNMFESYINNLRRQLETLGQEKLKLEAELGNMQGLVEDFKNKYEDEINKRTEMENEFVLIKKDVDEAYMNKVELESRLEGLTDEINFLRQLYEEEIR

[7] = target: T7, intact K8/K18(1-72) heterotypic complex (human, UniProt P05787 2-483; P05783 2-73); assay: summary map of the heterotypic association assay: GST deletion protein incubated with the complementary keratin, then stained with COU-1
T7 construct: Heterotypic complex of two GST fusion proteins; also called K18(1-72)/intact K8; not shown: glutathione S-transferase (GST) fusion partner, modified pGEX-2T vector
T7 chain 1: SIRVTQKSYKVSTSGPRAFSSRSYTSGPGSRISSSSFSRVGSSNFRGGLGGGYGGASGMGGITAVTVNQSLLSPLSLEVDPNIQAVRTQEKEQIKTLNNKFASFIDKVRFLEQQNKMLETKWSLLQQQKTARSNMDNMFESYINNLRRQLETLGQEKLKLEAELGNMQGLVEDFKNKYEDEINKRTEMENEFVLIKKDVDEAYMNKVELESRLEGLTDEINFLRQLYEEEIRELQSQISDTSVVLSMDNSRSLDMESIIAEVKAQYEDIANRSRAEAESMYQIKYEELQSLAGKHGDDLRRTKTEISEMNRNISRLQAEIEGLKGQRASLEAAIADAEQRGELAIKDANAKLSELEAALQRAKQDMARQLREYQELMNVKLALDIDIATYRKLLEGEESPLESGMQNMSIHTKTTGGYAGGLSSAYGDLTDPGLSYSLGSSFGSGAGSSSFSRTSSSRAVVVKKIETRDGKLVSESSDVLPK
T7 chain 2: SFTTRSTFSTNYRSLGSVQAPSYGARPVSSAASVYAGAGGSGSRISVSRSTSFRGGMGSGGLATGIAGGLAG

B1: human monoclonal IgM antibody COU-1 (antibody, V domains shown)
VH: GAEVKKPGASVKVSCKASDYTFSSYYMHWVRQAPGQGLEWMGIINPSGGSTSYAQKFQGRVTMTRDTSTNTVYMELSSLRSEDTAVYYCARDQVVVAATLSNYGMDVWGQGTTVTVSS
VL: ELTQSPGTLSLSPGERATLSCRASQSVSSSYLAWYQQKPGQAPRLLIYDASNRATGIPARFSGSGSGTDFTLTISSLEPEDFAVYYCQQGTNWGIAFGQGTRLDIKR
notes: Human IgM with kappa light chain, secreted by hybridoma B9165 (ECACC 87040201), purified from culture supernatant; also called HMab COU-1; HuMab COU-1
B1: no binding (tested: 5 µg/ml COU-1 (P-0279)) [1]; no binding (tested: 5 µg/ml COU-1 (P-0279)) [2]; no binding (tested: 5 µg/ml COU-1 (P-0279)) [3]. B1: no binding (tested: 5 µg/ml COU-1 (P-0279)) [4]; no binding (tested: 5 µg/ml COU-1 (P-0279)) [5]; no binding (tested: 5 µg/ml COU-1 (P-0279)) [6]. B1: no binding (tested: 5 µg/ml COU-1 (P-0285)) [7].
